Results: patent US10500256B2, “Polymers for delivery of therapeutic proteins” (BOARD OF REGENTS, THE UNIVERSITY OF TEXAS SYSTEM, priority 2014, dated 2019)
One block for each compound: values may come before it.

Key:
Caco-2 monolayer [1] = conditions: cited from earlier work
Caco-2 monolayer [2] = assay: Transport across Caco-2 monolayer (literature data); assay type: in vitro ADME, human; conditions: over the 3 h average residence time, assuming constant permeability
Source text: Aside from limited delivery potential from the microparticle carriers, loss of bioavailability resulting from intestinal enzymatic degradation and low intestinal absorption should also be accounted for.

[3] = in vivo absorption of compounds with similar Caco-2 permeability; cited from earlier work
[4] = Loading and release of salmon calcitonin, urokinase and Rituxan from 1:2 P(IA-co-NVP) microparticles; assay type: physicochemical; conditions: 3 mol % TEGDMA; for Loading Level: protein loading solution 200 μg/mL; for Percent Release, t = 24 h / Protein Released, t = 24 h: t=0-1 h pH 3, then pH 7.4
Source text: In an additional experiment, the loading and release of urokinase was also compared to that of sCT and rituximab using P(IA-co-NVP) microparticles synthesized with a monomer ratio of 1:2 IA to NVP. This experiment utilized urokinase as another high pI protein (pI=8.66) with a molecular weight (54.0 kDa) between that of salmon calcitonin (3.4 kDa) and rituximab (144 kDa), allowing us to see the effects across a range of sizes, rather than just two endpoints. Urokinase is used clinically as a thrombolytic agent for myocardial infarction, pulmonary embolism, and deep vein thrombosis.
This difference arises from two results. First, the hydrogels used in this experiment were crosslinked using 3 mol % TEGDMA in the monomer feed. […] Further, this experiment utilized loading solutions of proteins at only 200 μg/mL, rather than at 400 μg/mL as was used in the preceding experiment. […] With lower loading levels comes both lower overall delivery and lower percent release, as the lower loading level means less protein to be released even at 100% efficiency and, since concentration difference is the driving force for diffusion, less entropic gain due to diffusive release which therefore shifts the equilibrium toward coulombic binding rather than diffusive release.

Compound: 1-deamino-8-D-arginine-vasopressin
Apparent permeability in Caco-2 cultures (Caco-2 monolayer [1]; Caco-2): 1.3×10^−7

Fraction expected to be transported across the intestinal epithelium (Caco-2 monolayer [2]): 0.15%
Compound: CC(C)C[C@H](NC(=O)[C@H](CCCCN)NC(=O)CNC(=O)[C@H](CC(C)C)NC(=O)[C@@H](NC(=O)[C@@H]1CSSC[C@H](N)C(=O)N[C@@H](CO)C(=O)N[C@@H](CC(N)=O)C(=O)N[C@@H](CC(C)C)C(=O)N[C@@H](CO)C(=O)N[C@@H]([C@@H](C)O)C(=O)N1)C(C)C)C(=O)N[C@@H](CO)C(=O)N[C@@H](CCC(N)=O)C(=O)N[C@@H](CCC(=O)O)C(=O)N[C@@H](CC(C)C)C(=O)N[C@@H](Cc1c[nH]cn1)C(=O)N[C@@H](CCCCN)C(=O)N[C@@H](CC(C)C)C(=O)N[C@@H](CCC(N)=O)C(=O)N[C@H](C(=O)N[C@@H](Cc1ccc(O)cc1)C(=O)N1CCC[C@H]1C(=O)N[C@@H](CCCNC(=N)N)C(=O)N[C@H](C(=O)N[C@@H](CC(N)=O)C(=O)N[C@H](C(=O)NCC(=O)N[C@@H](CO)C(=O)NCC(=O)N[C@H](C(=O)N1CCC[C@H]1C(N)=O)[C@@H](C)O)[C@@H](C)O)[C@@H](C)O)[C@@H](C)O [Salmon Calcitonin]
Fraction transported across a Caco-2 monolayer (Caco-2 monolayer [1]; in vitro, over 60 min, Youn et al. (2006)): 0.05%

Compound: COc1cccc2c1C(=O)c1c(O)c3c(c(O)c1C2=O)C[C@@](O)(C(=O)CO)C[C@@H]3O[C@H]1C[C@H](N)[C@H](O)[C@H](C)O1 [doxorubicin]
Absorption [3]: 5%

Compound: Rituxan: large monoclonal antibody rituximab (144 kDa)
Loading Level [4]: 24.1 ± 1.5 μg/mg hydrogel
Loading Level ([4]; listed as rituximab): 24.1 μg/mg hydrogel
Percent Release, t = 24 h [4]: 20.0 ± 3.6%
Protein Released, t = 24 h [4]: 4.8 ± 1.1 μg/mg hydrogel

Compound: Urokinase
Loading Level [4]: 19.0 ± 1.1 μg/mg hydrogel
Loading Level ([4]; listed as urokinase): 19.0 μg/mg hydrogel
Percent Release, t = 24 h [4]: 14.2 ± 3.2%
Protein Released, t = 24 h [4]: 2.7 ± 0.5 μg/mg hydrogel
